Assay [1] addresses T1, twin strep-tagged human ROR2 extracellular domain (human, UniProt Q01974 34-403).
T1 construct: extracellular domain; Expressed in HEK293T; also called ROR2-ECD-TwinStrep
Nature of the assay: ELISA on coated twin-strep tagged human ROR2; anti-human Fcγ F(ab')2-HRP; absorbance 490 nm. The protocol: Each well of a 96-well plate was coated with 100 μL of 2 μg/mL strep-tagged human ROR1 (from Example 5) in 0.1 M bicarbonate coating buffer (pH 9.6), and incubated for 12 h at 4° C. A second 96-well plate was likewise prepared with twin-strep tagged human ROR2 (from Example 5).
HRP-conjugated F(ab′)₂ anti-human FC-gamma (Jackson Immunoresearch, 109-036-008) was then added at a 1:20′000 dilution, 100 μl per well, and incubated for 1 h at 37° C. prior to detection using an Spark 10M plate reader (Tecan).

In assay [2] the target is T2, StrepII-tagged human ROR1 extracellular domain (human, UniProt Q01973 30-406).
T2 construct: extracellular domain; also called ROR1-strep; strep-tagged human ROR1
The assay can be described thus: SPR (Biacore T200); mAb captured by goat anti-human Fcγ IgG on CM5; ROR1-strep as analyte (Example 8). The protocol: Affinity screening was then performed to select the best binders. Affinities were determined using a Biacore T200 instrument (GE Healthcare, Buckinghamshire, UK) and data was evaluated using Biacore Evaluation T200 V2.0 software. To capture mAbs, goat α-human Fc-gamma-specific IgG (Jackson ImmunoResearch, #109-005-098) was covalently immobilized on a CM5 chip (GE Healthcare, #BR-1005-30).

The target of assay [3] is T2, StrepII-tagged human ROR1 extracellular …. The assay can be described thus: SPR (Biacore T200), mAb captured by anti-human Fc-gamma IgG on CM5, ROR1-strep as analyte.
Assay [4] has as its target human ROR1, full length, on cells (human, UniProt Q01973 30-937). The assay can be described thus: cell-based or functional assay.
The target of a further assay is T3, hROR2 (human, UniProt Q01974).
T3 construct: full length, on the cell surface; also called 63-12 / hROR2; ROR2 on T47D cells
The assay can be described thus: flow cytometry on T47D cells (ROR2 positive, ROR1 negative); APC goat anti-human Fcγ. The protocol: Flow cytometry: Cells were stained using standard flow cytometry methodology. Briefly, for purified anti-ROR1 Fab (FIG. 3), 0.1-1×10⁶ cells were stained with 1000 ng/100 μL of Fab on ice for 1 h. After washing twice with ice-cold flow cytometry buffer (PBS containing 1% (v/v) BSA, 0.1% sodium azide and 1 mM EDTA), the cells were incubated with a 1:1000 dilution of a mouse anti-His tag mAb conjugated to Alexa Fluor 488 (Qiagen) in 100 μL flow cytometry buffer on ice for 30 min. For purified anti-ROR1 IgG1 (FIG. 8), 0.1-1×10⁶ cells were blocked by 4% goat serum for 15 min at room temperature and then incubated with 100 ng/100 μL of IgG on ice for 1 h. After washing twice with ice-cold flow cytometry buffer, cells were stained with a 1:500 dilution of goat anti-human IgG, Fcγ pAbs conjugated to APC (Jackson ImmunoResearch) in 100 μL flow cytometry buffer on ice for 30 min. For commercial goat anti human ROR1 polyclonal antibody (FIG. 8), 0.1-1×10⁶ cells were stained with 200 ng/100 μL of Ab on ice for 1 h. […] Finally, 4′,6-diamidino-2-phenylindole (DAPI) was added to a final concentration of 100 ng/mL to exclude dead cells from the analysis. Cells were analyzed using a FACSCalibur instrument (BD Biosciences) and FlowJo analytical software (Tree Star, Ashland, Oreg.).

T1 sequence (Q01974 34-403): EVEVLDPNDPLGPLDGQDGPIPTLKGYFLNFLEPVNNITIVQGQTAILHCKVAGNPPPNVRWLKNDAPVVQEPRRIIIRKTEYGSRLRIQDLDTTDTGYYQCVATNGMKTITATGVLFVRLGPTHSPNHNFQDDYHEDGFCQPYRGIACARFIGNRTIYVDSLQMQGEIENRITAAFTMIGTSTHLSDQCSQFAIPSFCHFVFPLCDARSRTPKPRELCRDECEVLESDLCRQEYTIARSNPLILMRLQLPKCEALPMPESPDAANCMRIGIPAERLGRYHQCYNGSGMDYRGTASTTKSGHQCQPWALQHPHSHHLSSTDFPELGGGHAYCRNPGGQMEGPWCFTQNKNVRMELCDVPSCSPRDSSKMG
T2 sequence (Q01973 other isoform, or with tags, fused parts or gaps): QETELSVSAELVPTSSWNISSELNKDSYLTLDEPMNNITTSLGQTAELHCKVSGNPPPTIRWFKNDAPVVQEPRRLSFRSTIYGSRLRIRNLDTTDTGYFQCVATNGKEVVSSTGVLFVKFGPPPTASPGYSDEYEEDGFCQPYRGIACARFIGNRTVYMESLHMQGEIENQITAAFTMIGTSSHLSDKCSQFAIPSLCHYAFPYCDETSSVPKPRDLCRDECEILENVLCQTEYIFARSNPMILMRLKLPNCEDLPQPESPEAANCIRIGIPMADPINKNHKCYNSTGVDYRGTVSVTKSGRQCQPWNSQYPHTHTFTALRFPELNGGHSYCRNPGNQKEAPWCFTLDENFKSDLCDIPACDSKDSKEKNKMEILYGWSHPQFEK
T3 sequence (Q01974 34-943 limits assumed): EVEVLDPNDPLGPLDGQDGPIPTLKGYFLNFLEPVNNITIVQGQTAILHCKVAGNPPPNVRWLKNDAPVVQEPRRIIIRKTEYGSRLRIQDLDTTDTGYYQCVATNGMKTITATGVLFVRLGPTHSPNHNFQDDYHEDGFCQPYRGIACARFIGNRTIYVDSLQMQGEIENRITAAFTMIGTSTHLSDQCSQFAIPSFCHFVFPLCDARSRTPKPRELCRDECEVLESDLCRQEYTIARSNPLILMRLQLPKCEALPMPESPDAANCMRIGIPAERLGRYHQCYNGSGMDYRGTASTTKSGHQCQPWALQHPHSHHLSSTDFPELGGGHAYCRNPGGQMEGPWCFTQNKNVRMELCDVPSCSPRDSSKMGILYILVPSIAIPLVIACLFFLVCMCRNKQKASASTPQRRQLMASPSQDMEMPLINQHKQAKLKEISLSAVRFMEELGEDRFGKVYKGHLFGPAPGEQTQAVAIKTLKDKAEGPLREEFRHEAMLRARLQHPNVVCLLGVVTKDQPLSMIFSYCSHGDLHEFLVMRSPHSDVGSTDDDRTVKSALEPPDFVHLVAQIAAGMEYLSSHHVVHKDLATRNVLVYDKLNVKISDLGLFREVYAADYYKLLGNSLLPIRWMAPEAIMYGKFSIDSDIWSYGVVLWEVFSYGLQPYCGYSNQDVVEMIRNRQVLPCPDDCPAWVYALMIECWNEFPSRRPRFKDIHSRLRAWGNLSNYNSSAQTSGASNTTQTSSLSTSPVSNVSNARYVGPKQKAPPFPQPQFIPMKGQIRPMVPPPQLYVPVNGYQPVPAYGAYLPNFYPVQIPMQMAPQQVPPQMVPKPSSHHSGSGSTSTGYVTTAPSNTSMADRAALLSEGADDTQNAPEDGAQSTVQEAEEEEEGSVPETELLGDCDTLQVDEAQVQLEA
human ROR1, full length, on cells, sequence (Q01973 30-937): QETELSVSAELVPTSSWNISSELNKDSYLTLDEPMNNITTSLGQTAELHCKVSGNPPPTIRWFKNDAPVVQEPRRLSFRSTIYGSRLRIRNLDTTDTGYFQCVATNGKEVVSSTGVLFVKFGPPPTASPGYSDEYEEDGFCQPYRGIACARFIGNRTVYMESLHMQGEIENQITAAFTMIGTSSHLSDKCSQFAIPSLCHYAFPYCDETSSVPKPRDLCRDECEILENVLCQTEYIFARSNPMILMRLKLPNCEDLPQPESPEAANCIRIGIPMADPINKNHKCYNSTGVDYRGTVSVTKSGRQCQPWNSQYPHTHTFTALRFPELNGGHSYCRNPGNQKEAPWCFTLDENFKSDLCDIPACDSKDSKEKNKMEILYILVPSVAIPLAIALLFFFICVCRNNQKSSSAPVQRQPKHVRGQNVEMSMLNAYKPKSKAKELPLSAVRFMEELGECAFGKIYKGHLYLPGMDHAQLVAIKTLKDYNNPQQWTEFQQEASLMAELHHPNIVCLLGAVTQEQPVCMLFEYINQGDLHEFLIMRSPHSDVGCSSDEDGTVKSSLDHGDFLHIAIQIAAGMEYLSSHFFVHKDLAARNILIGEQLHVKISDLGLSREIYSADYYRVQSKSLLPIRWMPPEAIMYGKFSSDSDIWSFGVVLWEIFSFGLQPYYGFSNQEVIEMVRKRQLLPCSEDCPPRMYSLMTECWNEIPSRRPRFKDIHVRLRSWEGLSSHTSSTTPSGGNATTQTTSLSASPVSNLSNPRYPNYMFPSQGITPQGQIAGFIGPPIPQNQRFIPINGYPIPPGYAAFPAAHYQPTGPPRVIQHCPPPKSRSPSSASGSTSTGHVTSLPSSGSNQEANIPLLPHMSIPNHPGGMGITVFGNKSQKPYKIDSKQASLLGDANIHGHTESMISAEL

B1: XBR1-402 (mAb031) IgG with C-terminal sortase and Strep tags (antibody, V domains shown)
VH: QEQQKESGGGLFKPTDTLTLTCTASGFDISSYYMSWVRQAPGNGLEWIGAIGISGNAYYASWAKSRSTITRNTNLNTVTLKMTSLTAADTATYFCARDHPTYGMDLWGPGTLVTVSS
VL: SYELTQLPSVSVSLGQTARITCEGNNIGSKAVHWYQQKPGLAPGLLIYDDDERPSGVPDRFSGSNSGDTATLTISGAQAGDEADYYCQVWDSSAYVFGGGTQLTVTG
notes: Human IgH-gamma1 and IgL-lambda constant regions
Take B1: the binding result in assay [1] is “no binding (tested: about 500 ng/ml)”.

B2: HuXBR1-402(15) (mAb290) (antibody, human IgG1, V domains shown)
VH: QVQLQESGPGLVKPSETLSLTCTVSGFDISSYYMSWVRQPPGKGLEWIGAIGISGNAYYASWAKSRVTISRDTSKNQFSLKLSSVTAADTAVYYCARDHPTYGMDLWGPGTLVTVSS
VL: SYELTQPPSVSVAPGKTARITCEGNNIGSKAVHWYQQKPGQAPVLVIYDDDERPSGIPERFSGSNSGNTATLTISRVEAGDEADYYCQVWDSSAYVFGGGTKLTVLG
notes: Humanized IgG (human IgG1 constant regions, lambda)
In assay [2], B2 returned a Kd of 3.5 nM, a dissociation rate constant (koff) of 0.00394 s⁻¹ and a kon of 1.11e+06 M⁻¹ s⁻¹. Further, the Kd in assay [3] is 3.55 nM.

B3: HuXBR1-402(3) (mAb288) (antibody, human IgG1, V domains shown)
VH: QVQLRESGPGLVKPSETLSLTCTVSGFDISSYYMSWVRQPPGKGLEWIGAIGISGNAYYASWAKSRVTISRDTSKNQFSLKLSSVTAADTAVYYCARDHPTYGMDLWGPGTLVTVSS
VL: SYELTQPLSVSVALGQTARITCEGNNIGSKAVHWYQQKPGQAPVLVIYDDDERPSGIPERFSGSNSGNTATLTISRAQAGDEADYYCQVWDSSAYVFGGGTKLTVLG
notes: as for B2
As for B3, in assay [2], binding was put at a Kd of 3.2 nM, the off-rate constant (koff) came to 0.00375 s⁻¹ and the on-rate constant (kon) turned out to be 1.19e+06 M⁻¹ s⁻¹. The molecule also displayed a Kd in assay [3] of 3.16 nM.

B4: HuXBR1-402(8) (mAb289) (antibody, human IgG1, V domains shown)
VH: QVQLQESGPGLVKPSETLSLTCTVSGFDISSYYMSWVRQPPGKGLEWIGAIGISGNAYYASWAKSRVTISRDTSKNQFSLKLSSVTAADTAVYYCARDHPTYGMDLWGPGTLVTVSS
VL: SYELTQPPSVSVSPGQTAIITCEGNNIGSKAVHWYQQKPGLSPVLVIYDDDERPSGIPERFSGSNSGNTATLTVSGTQDMDEADYYCQVWDSSAYVFGGGTKLTVLG
notes: as for B2
Take B4: in assay [2], the dissociation constant Kd is 2.1 nM, the koff worked out at 0.00276 s⁻¹ and the on-rate (kon) was determined as 1.29e+06 M⁻¹ s⁻¹. Also, in assay [3], the affinity, expressed as Kd, was 2.14 nM.

B5: HuXBR1-402(26) (mAb296) (antibody, human IgG1, V domains shown)
VH: QVQLQESGPGLVKPSETLSLTCTVSGFDISSYYMSWVRQPPGNGLEWIGAIGISGNAYYASWAKSRVTISRDTSKNQFSLKLSSVTAADTAVYYCARDHPTYGMDLWGPGTLVTVSS
VL: SYELTQPLSVSVALGQTARITCEGNNIGSKAVHWYQQKPGLAPVLVIYDDDERPSGIPERFSGSNSGNTATLTISRAQAGDEADYYCQVWDSSAYVFGGGTQLTVLG
notes: as for B2
In the case of B5, in assay [2], the dissociation constant (Kd) stood at 3.1 nM, the koff turned out to be 0.00328 s⁻¹ and the kon worked out at 1.05e+06 M⁻¹ s⁻¹. Also, in assay [3], binding was characterised by a dissociation constant (Kd) of 3.13 nM.

B6: HuXBR1-402(19) (mAb295) (antibody, human IgG1, V domains shown)
VH: QVQLQESGPGLVKPSETLSLTCTVSGFDISSYYMSWVRQPPGNGLEWIGAIGISGNAYYASWAKSRVTISRDTSKNQFSLKLSSVTAADTAVYYCARDHPTYGMDLWGPGTLVTVSS
VL: SYELTQPPSVSVAPGKTARITCEGNNIGSKAVHWYQQKPGQAPVLVIYDDDERPSGIPERFSGSNSGNTATLTISRVEAGDEADYYCQVWDSSAYVFGGGTKLTVLG
notes: as for B2
In assay [2], B6 came in with a Kd of 3 nM, an off-rate (koff) of 0.00332 s⁻¹ and a kon of 1.11e+06 M⁻¹ s⁻¹. In assay [3], this molecule registered a Kd of 2.98 nM.

B7: HuXBR1-402(17) (mAb291) (antibody, human IgG1, V domains shown)
VH: QVQLRESGPGLVKPSETLSLTCTVSGFDISSYYMSWVRQPPGKGLEWIGAIGISGNAYYASWAKSRVTISRDTSKNQFSLKLSSVTAADTAVYYCARDHPTYGMDLWGPGTLVTVSS
VL: SYELTQPPSVSVAPGKTARITCEGNNIGSKAVHWYQQKPGQAPVLVIYDDDERPSGIPERFSGSNSGNTATLTISRVEAGDEADYYCQVWDSSAYVFGGGTKLTVLG
notes: as for B2
As for B7, in assay [2], binding was characterised by a dissociation constant (Kd) of 3.4 nM, the koff stood at 0.00322 s⁻¹ and the association rate constant (kon) was determined as 960000 M⁻¹ s⁻¹. Besides, the affinity in assay [3], expressed as Kd, was 3.34 nM.

B8: ERR1-Top43-G5-PNU (adc204) antibody drug conjugate (other)
VH: QSLEESGGRLVTPGTPLTLTCTVSGFSLSSYWMSWVRQAPGKGLEWIGAIYGSGNTYYASWAKGRFTISKTSTTVDLKITSPTTEDTATYFCARDVHSTATDLWGPGTLVTISS
VL: SYELTQLPSVSVSLGQTARITCGGNNIGSKAVNWYQQKPGLAPGLLIYNDDERPSGVPDRFSGSNSGDTATLTISGAQAGDEADYYCQLWDSSAGAYVFGGGTQLTVTG
modifications: Gly5-EDA-PNU joined by sortase to the C-terminal G5SLPETG tag of the full light chain; Gly5-EDA-PNU joined by sortase to the C-terminal LPETG tag of the full heavy chain
Regarding B8, in assay [4], the “IC50 of in vitro cell killing, HS 578T cells (hROR1 status positive)” value is 0.707 µg/mL and the “IC50 of in vitro cell killing, MDA-MD-468 cells (hROR1 status positive)” value came to 0.143 µg/mL.

B9: ERR1-TOP43 chimeric rabbit/human IgG1 (antibody, V domains shown)
VH: QSLEESGGRLVTPGTPLTLTCTVSGFSLSSYWMSWVRQAPGKGLEWIGAIYGSGNTYYASWAKGRFTISKTSTTVDLKITSPTTEDTATYFCARDVHSTATDLWGPGTLVTISS
VL: SYELTQLPSVSVSLGQTARITCGGNNIGSKAVNWYQQKPGLAPGLLIYNDDERPSGVPDRFSGSNSGDTATLTISGAQAGDEADYYCQLWDSSAGAYVFGGGTQLTVTG
notes: Rabbit variable domains on human IgG1 constant regions (pCEP4), lambda light chain, from HEK 293F cells
For the molecule B9, the binding result with hROR2 is reported as “no binding (tested: 100 ng/100 µL)”.

B10: ERR1-Top43 (mAb036) IgG with C-terminal sortase and Strep tags (antibody, V domains shown)
VH: QSLEESGGRLVTPGTPLTLTCTVSGFSLSSYWMSWVRQAPGKGLEWIGAIYGSGNTYYASWAKGRFTISKTSTTVDLKITSPTTEDTATYFCARDVHSTATDLWGPGTLVTISS
VL: SYELTQLPSVSVSLGQTARITCGGNNIGSKAVNWYQQKPGLAPGLLIYNDDERPSGVPDRFSGSNSGDTATLTISGAQAGDEADYYCQLWDSSAGAYVFGGGTQLTVTG
notes: Human IgG1 constant regions
As to B10, the binding result in assay [1] is reported as “no binding (tested: about 500 ng/ml)”.

B11: ERR1-403 (mAb035) IgG with C-terminal sortase and Strep tags (antibody, V domains shown)
VH: QEQLKESGRGLVQPGGSLKLSCKASGFDFSGWYMTWVRQAPGKGLEWIGTIGTTKGRTYYASWVNGRFTISSNAQNTVDLQMNSLTAADRATYFCVRGSDYFDLWGPGTLVTISS
VL: SYELTQLPSVSVSLGQTARITCGGNSIGSKAVNWYQQKPGLAPGLLIYDDDERPSGVPARFSGSNSGDTATLTISGAQAGDEADYYCQLWDSSAGAYVFGGGTQLTVTG
notes: Human IgG1 constant regions
B11: in assay [1], the binding result is reported as “no binding (tested: about 500 ng/ml)”.

B12: ERR1-TOP54 (antibody, IgG1, V domains shown)
VH: QSLEESGGRLVTPGTPLTLTCTASGFSLSDYYMSWVRQAPGEGLEWIGTIYGGSGNTWYATWAKGRFTISKTSTTVDLKITSPTTEDTATYFCARDFGLSTGGLWGPGTLVTISS
VL: SYELTQLPSVSVSLGQTARITCGGNSIGSKAVNWYQQKPGLAPGLLIYDDDERPSGVPDRFSGSNSGDTATLTISGAQAGDEADYYCQLWDSSARAFVFGGGTQLTVTG
notes: also called ERR1-TOP54 chimeric rabbit/human IgG1
On to B12, for which, in the assay with hROR2, the binding result is given as “no binding (tested: 100 ng/100 µL)”.

These data come from patent publication US20220153839A1 (NBE THERAPEUTICS, published 2022).
